Substrate: O=P(O)(O)OP(=O)(O)O
Assay: purified protein
Format: biochemical, Thermococcus onnurineus
Conditions: standard assay: 2 mM MgCl2, 50 mM Tris-HCl, 80 °C, optimum pH 9.0 (pH of the kinetic run not stated)

B1: Ton1914 (Thermococcus onnurineus NA1) (protein)
chain: MNPFHELEPGPEVPEVVYALIEIPKGSRNKYELDKKTGLLKLDRVLYSPFFYPVDYGIIPQTWYDDGDPFDIMVIMREPVYPLTIVEARPIGIMKMEDSGDKDWKVLAVPVEDPYFNDWKDIDDVPKAFLDEIAHFFQRYKELQGKVTTVEGWGTAEEAKREILRAIEMYKEKFGKKE
notes: about 120 kDa native-PAGE, homo-hexamer; pET28a Nco I/Xho I, E. coli BL21(DE3), heat-purified 80 °C; EC 3.6.1.1, Family I
B1 gave a Km of 1116 µM, a kcat of 30000 s⁻¹ and a kcat/Km of 2.68e+07 M⁻¹ s⁻¹.
